Molecular target: FcεRIα subunit of the high-affinity IgE receptor (FcεRI) (human) (UniProt P12319)
Assay: cell-based or functional assay

Chain of FcεRIα subunit of the high-affinity IgE receptor (FcεRI) (human) (P12319 26-257 limits assumed, form in doubt): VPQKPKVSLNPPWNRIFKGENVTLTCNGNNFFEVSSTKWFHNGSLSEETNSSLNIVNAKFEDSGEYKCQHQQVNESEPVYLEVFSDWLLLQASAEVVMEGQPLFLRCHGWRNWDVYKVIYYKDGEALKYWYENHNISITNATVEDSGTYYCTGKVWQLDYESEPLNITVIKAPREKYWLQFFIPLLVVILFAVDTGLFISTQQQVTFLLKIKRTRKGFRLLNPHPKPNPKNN

positive population mean for CD63: 52.7%
positive population mean for CD107a: 71.2%
Substance: anti-FcεRIα antibody, clone AER-37 (CRA1)

Source: patent US20240091164A1
